A word on the stoichiometry N: it is a count of units in the complex or per binding partner.

Assay [1] deals with PRRSV nsp11 mutant F76A, pET-30a (+) construct (PRRSV strain WUH3).
In assay [2] the target is PRRSV nsp11 mutant G1A (PRRSV strain WUH3). The assay can be described thus: SEC; data not shown; Superdex 75 10/300 GL under the same buffer conditions (20 mM Tris-HCl pH 7.4, 200 mM NaCl), 1 mg protein.
Assay [3] has as its target PRRSV nsp11 mutant G137A (PRRSV strain WUH3). Described as above.
Assay [4] has as its target PRRSV nsp11 mutant G138A (PRRSV strain WUH3). The assay is described as above.
In assay [5] the target is PRRSV nsp11 mutant K173A, pET-42b (+) construct with C-terminal His6 tag (PRRSV strain WUH3). As to the kind of experiment: SEC; Superdex 75 10/300 GL, 20 mM Tris-HCl pH 7.4, 200 mM NaCl, 0.6 ml/min, 4°C, 1 mg protein; masses from a calibration curve; fractions checked by SDS-PAGE.
Assay [6] shares this target. As to the kind of experiment: AUC; sedimentation velocity, 45,000 rpm, 18°C, 280 nm, c(s) distribution with Sedfit.
In assay [7] the target is PRRSV nsp11 mutant F76A made on the K173A template. As to the kind of experiment: sedimentation velocity analytical ultracentrifugation (AUC).
Assay [8] concerns the target PRRSV nsp11 mutant R153A made on the K173A template. The assay is described as above.
Assay [9] concerns the target PRRSV nsp11 mutant S74A made on the K173A template. Described as above.
The target of assay [10] is PRRSV nsp11 mutant L54A (PRRSV strain WUH3). The assay can be described thus: SEC; data not shown; Superdex 75 10/300 GL under the same buffer conditions (20 mM Tris-HCl pH 7.4, 200 mM NaCl), 1 mg protein. In general terms: SEC sorts molecules by how far they enter the pores of the column.
Assay [11] deals with PRRSV nsp11 mutant R55A (PRRSV strain WUH3). Described as above.
Assay [12] has as its target PRRSV nsp11 mutant S74A, pET-30a (+) construct (PRRSV strain WUH3).
For assay [13], the target named is PRRSV nsp11 mutant S166A (PRRSV strain WUH3). As to the kind of experiment: SEC; data not shown; Superdex 75 10/300 GL under the same buffer conditions (20 mM Tris-HCl pH 7.4, 200 mM NaCl), 1 mg protein.
Assay [14] deals with PRRSV nsp11 mutant V165A (PRRSV strain WUH3). Described as above.
The target of assay [15] is PRRSV nsp11 mutant Y69A (PRRSV strain WUH3). The description is as above.
[16] abbreviates: parent: 4.396 (dimer species, 86.67%), 2.614 (monomer species, 14.04%).
[17] abbreviates: parent: 63.7 (dimer species, 86.67%), 29.2 (monomer species, 14.04%).

In assay [1], “PRRSV nsp11 mutant F76A, pET-30a (+) construct (enzyme)” came in with an endoribonuclease activity (FRET assay, 2 μM enzyme, 1 μM fluorescent RNA substrate, 25°C), against wild-type nsp11 (fold less than wild type) above 4. Take PRRSV nsp11 mutant G1A (enzyme): in assay [2], the stoichiometry N turned out to be 2. On to PRRSV nsp11 mutant G137A (enzyme), for which the stoichiometry N in [3] came out at 2. As to PRRSV nsp11 mutant G138A (enzyme), the stoichiometry N in assay [4] was found to be 2. Consider “PRRSV nsp11 mutant K173A, pET-42b (+) construct with C-terminal His6 tag (enzyme)”, for which the stoichiometry N in assay [5] worked out at 2. In assay [6], this substance gave a percent dimer of 86.7% and a percent monomer of 14%. Turning to “PRRSV nsp11 mutant K173A, pET-42b (+) construct with C-terminal His6 tag F76A”, in assay [7] (setting [16]), the other: sedimentation coefficient S20,W turned out to be 3.07 S. Moreover, the other: calculated molecular weight (MW) from AUC in [7] (setting [17]) is 37.8.

In the case of “PRRSV nsp11 mutant K173A, pET-42b (+) construct with C-terminal His6 tag R153A”, the other: sedimentation coefficient S20,W in [8] (setting [16]) came out at 3.4 S. Also, the other: calculated molecular weight (MW) from AUC in assay [8] (setting [17]) was 40.7.

On to “PRRSV nsp11 mutant K173A, pET-42b (+) construct with C-terminal His6 tag S74A”, for which, in assay [9] (setting [16]), the other: sedimentation coefficient S20,W turned out to be 3.32 S. The other: calculated molecular weight (MW) from AUC in [9] (setting [17]) is 50.2.

PRRSV nsp11 mutant L54A (enzyme) came in with a stoichiometry N in assay [10] of 2. In turn, PRRSV nsp11 mutant R55A (enzyme) showed a stoichiometry N in assay [11] of 2. As to “PRRSV nsp11 mutant S74A, pET-30a (+) construct (enzyme)”, the endoribonuclease activity (FRET assay, 2 μM enzyme, 1 μM fluorescent RNA substrate, 25°C), against wild-type nsp11 (fold less than wild type) in [12] was above 4. PRRSV nsp11 mutant S166A (enzyme) yielded a stoichiometry N in assay [13] of 2.

As for PRRSV nsp11 mutant V165A (enzyme), the stoichiometry N in assay [14] worked out at 2. Take PRRSV nsp11 mutant Y69A (enzyme): in [15], the stoichiometry N amounted to 2.
